The text below walks through data of US20020045208A1.

For the test, the target named is bFGF receptor molecules present on the surface of the B16 cells (mouse). In words: cell-based or functional assay.

Take “bFGF-MLA fusion protein (basic fibroblast growth factor fused to the N terminus of rMLA) (from UniProt P09038 134-288)”: the cytotoxic activity on B16 cells (WST-1 viability), IC50 was found to be 0.048 µg/mL and the increase of toxicity against rMLA alone on B16 cells was more than 100 fold.

On to “bFGF-MLA/rMLB associated fusion protein (bFGF-MLA coupled to rMLB under co-folding) (from UniProt P09038 134-288)”, for which the cytotoxic effect on B16 cells (MTT viability), IC50 was 0.01 µg/mL and the improvement of the IC50 value on B16 cells against bFGF-MLA is 5 fold.
